From patent US20040087777A1 (NEURALAB, published 2004)

Columns and labels:
Experiment in all cases: rNET
… analog, Residue 3 = R = biological target: T1, … analog, Residue 3 = R
T1 peptide: DARFRHDSGY
Protocol: (§1) The rNET epitope map assay provides information about the contribution of individual residues within the epitope to the overall binding activity of the antibody. rNET analysis uses synthesized systematic single substituted peptide analogs. Binding of an antibody being tested is determined against native peptide (native antigen) and against 19 alternative “single substituted” peptides, each peptide being substituted at a first position with one of 19 non-native amino acids for that position. A profile is generated reflecting the effect of substitution at that position with the various non-native residues. Profiles are likewise generated at successive positions along the antigenic peptide. The combined profile, or epitope map, (reflecting substitution at each position with all 19 non-native residues) can then be compared to a map similarly generated for a second antibody.
(§2) Antibodies were tested for binding against the native Aβ peptide [sequence] […] Residues 1-8 were systematically substituted with each of the 19 non-native residues for that position.

… analog, Residue 2 = S = biological target: T2, … analog, Residue 2 = S
T2 peptide: DSEFRHDSGY
Protocol: as §1, §2

… analog, Residue 8 = T = biological target: T3, … analog, Residue 8 = T
T3 peptide: DAEFRHDTGY
Protocol: as §1, §2

… analog, Residue 3 = C = biological target: T4, … analog, Residue 3 = C
T4 peptide: DACFRHDSGY
Protocol: as §1, §2

… analog, Residue 8 = C = biological target: T5, … analog, Residue 8 = C
T5 peptide: DAEFRHDCGY
Protocol: as §1, §2

… analog, Residue 5 = G = biological target: T6, … analog, Residue 5 = G
T6 peptide: DAEFGHDSGY
Protocol: as §1, §2

… analog, Residue 3 = M = biological target: T7, … analog, Residue 3 = M
T7 peptide: DAMFRHDSGY
Protocol: as §1, §2

… analog, Residue 2 = Y = biological target: T8, … analog, Residue 2 = Y
T8 peptide: DYEFRHDSGY
Protocol: as §1, §2

… analog, Residue 2 = P = biological target: T9, … analog, Residue 2 = P
T9 peptide: DPEFRHDSGY
Protocol: as §1, §2

… analog, Residue 3 = L = biological target: T10, … analog, Residue 3 = L
T10 peptide: DALFRHDSGY
Protocol: as §1, §2

… analog, Residue 1 = T = biological target: T11, … analog, Residue 1 = T
T11 peptide: TAEFRHDSGY
Protocol: as §1, §2

… analog, Residue 1 = N = biological target: T12, … analog, Residue 1 = N
T12 peptide: NAEFRHDSGY
Protocol: as §1, §2

… analog, Residue 3 = Y = biological target: T13, … analog, Residue 3 = Y
T13 peptide: DAYFRHDSGY
Protocol: as §1, §2

… analog, Residue 3 = F = biological target: T14, … analog, Residue 3 = F
T14 peptide: DAFFRHDSGY
Protocol: as §1, §2

… analog, Residue 3 = G = biological target: T15, … analog, Residue 3 = G
T15 peptide: DAGFRHDSGY
Protocol: as §1, §2

… analog, Residue 2 = N = biological target: T16, … analog, Residue 2 = N
T16 peptide: DNEFRHDSGY
Protocol: as §1, §2

… analog, Residue 1 = K = biological target: T17, … analog, Residue 1 = K
T17 peptide: KAEFRHDSGY
Protocol: as §1, §2

… analog, Residue 1 = W = biological target: T18, … analog, Residue 1 = W
T18 peptide: WAEFRHDSGY
Protocol: as §1, §2

… analog, Residue 2 = L = biological target: T19, … analog, Residue 2 = L
T19 peptide: DLEFRHDSGY
Protocol: as §1, §2

… analog, Residue 3 = Q = biological target: T20, … analog, Residue 3 = Q
T20 peptide: DAQFRHDSGY
Protocol: as §1, §2

… analog, Residue 1 = E = biological target: T21, … analog, Residue 1 = E
T21 peptide: EAEFRHDSGY
Protocol: as §1, §2

… analog, Residue 8 = G = biological target: T22, … analog, Residue 8 = G
T22 peptide: DAEFRHDGGY
Protocol: as §1, §2

… analog, Residue 1 = P = biological target: T23, … analog, Residue 1 = P
T23 peptide: PAEFRHDSGY
Protocol: as §1, §2

… analog, Residue 8 = D = biological target: T24, … analog, Residue 8 = D
T24 peptide: DAEFRHDDGY
Protocol: as §1, §2

… analog, Residue 8 = P = biological target: T25, … analog, Residue 8 = P
T25 peptide: DAEFRHDPGY
Protocol: as §1, §2

… analog, Residue 8 = W = biological target: T26, … analog, Residue 8 = W
T26 peptide: DAEFRHDWGY
Protocol: as §1, §2

… analog, Residue 8 = E = biological target: T27, … analog, Residue 8 = E
T27 peptide: DAEFRHDEGY
Protocol: as §1, §2

… analog, Residue 3 = D = biological target: T28, … analog, Residue 3 = D
T28 peptide: DADFRHDSGY
Protocol: as §1, §2

… analog, Residue 2 = T = biological target: T29, … analog, Residue 2 = T
T29 peptide: DTEFRHDSGY
Protocol: as §1, §2

… analog, Residue 8 = I = biological target: T30, … analog, Residue 8 = I
T30 peptide: DAEFRHDIGY
Protocol: as §1, §2

… analog, Residue 3 = A = biological target: T31, … analog, Residue 3 = A
T31 peptide: DAAFRHDSGY
Protocol: as §1, §2

… analog, Residue 8 = Y = biological target: T32, … analog, Residue 8 = Y
T32 peptide: DAEFRHDYGY
Protocol: as §1, §2

… analog, Residue 1 = I = biological target: T33, … analog, Residue 1 = I
T33 peptide: IAEFRHDSGY
Protocol: as §1, §2

… analog, Residue 2 = M = biological target: T34, … analog, Residue 2 = M
T34 peptide: DMEFRHDSGY
Protocol: as §1, §2

… analog, Residue 2 = Q = biological target: T35, … analog, Residue 2 = Q
T35 peptide: DQEFRHDSGY
Protocol: as §1, §2

… analog, Residue 3 = I = biological target: T36, … analog, Residue 3 = I
T36 peptide: DAIFRHDSGY
Protocol: as §1, §2

… analog, Residue 2 = G = biological target: T37, … analog, Residue 2 = G
T37 peptide: DGEFRHDSGY
Protocol: as §1, §2

… analog, Residue 8 = Q = biological target: T38, … analog, Residue 8 = Q
T38 peptide: DAEFRHDQGY
Protocol: as §1, §2

… analog, Residue 3 = W = biological target: T39, … analog, Residue 3 = W
T39 peptide: DAWFRHDSGY
Protocol: as §1, §2

… analog, Residue 1 = F = biological target: T40, … analog, Residue 1 = F
T40 peptide: FAEFRHDSGY
Protocol: as §1, §2

… analog, Residue 8 = M = biological target: T41, … analog, Residue 8 = M
T41 peptide: DAEFRHDMGY
Protocol: as §1, §2

… analog, Residue 1 = L = biological target: T42, … analog, Residue 1 = L
T42 peptide: LAEFRHDSGY
Protocol: as §1, §2

… analog, Residue 1 = Y = biological target: T43, … analog, Residue 1 = Y
T43 peptide: YAEFRHDSGY
Protocol: as §1, §2

… analog, Residue 1 = M = biological target: T44, … analog, Residue 1 = M
T44 peptide: MAEFRHDSGY
Protocol: as §1, §2

… analog, Residue 2 = I = biological target: T45, … analog, Residue 2 = I
T45 peptide: DIEFRHDSGY
Protocol: as §1, §2

… analog, Residue 8 = H = biological target: T46, … analog, Residue 8 = H
T46 peptide: DAEFRHDHGY
Protocol: as §1, §2

… analog, Residue 3 = N = biological target: T47, … analog, Residue 3 = N
T47 peptide: DANFRHDSGY
Protocol: as §1, §2

… analog, Residue 2 = W = biological target: T48, … analog, Residue 2 = W
T48 peptide: DWEFRHDSGY
Protocol: as §1, §2

… analog, Residue 7 = E = biological target: T49, … analog, Residue 7 = E
T49 peptide: DAEFRHESGY
Protocol: as §1, §2

… analog, Residue 2 = E = biological target: T50, … analog, Residue 2 = E
T50 peptide: DEEFRHDSGY
Protocol: as §1, §2

… analog, Residue 2 = H = biological target: T51, … analog, Residue 2 = H
T51 peptide: DHEFRHDSGY
Protocol: as §1, §2

… analog, Residue 3 = T = biological target: T52, … analog, Residue 3 = T
T52 peptide: DATFRHDSGY
Protocol: as §1, §2

… analog, Residue 1 = S = biological target: T53, … analog, Residue 1 = S
T53 peptide: SAEFRHDSGY
Protocol: as §1, §2

… analog, Residue 1 = Q = biological target: T54, … analog, Residue 1 = Q
T54 peptide: QAEFRHDSGY
Protocol: as §1, §2

… analog, Residue 8 = R = biological target: T55, … analog, Residue 8 = R
T55 peptide: DAEFRHDRGY
Protocol: as §1, §2

… analog, Residue 3 = P = biological target: T56, … analog, Residue 3 = P
T56 peptide: DAPFRHDSGY
Protocol: as §1, §2

… analog, Residue 1 = C = biological target: T57, … analog, Residue 1 = C
T57 peptide: CAEFRHDSGY
Protocol: as §1, §2

… analog, Residue 1 = A = biological target: T58, … analog, Residue 1 = A
T58 peptide: AAEFRHDSGY
Protocol: as §1, §2

… analog, Residue 1 = G = biological target: T59, … analog, Residue 1 = G
T59 peptide: GAEFRHDSGY
Protocol: as §1, §2

… analog, Residue 2 = V = biological target: T60, … analog, Residue 2 = V
T60 peptide: DVEFRHDSGY
Protocol: as §1, §2

… analog, Residue 8 = L = biological target: T61, … analog, Residue 8 = L
T61 peptide: DAEFRHDLGY
Protocol: as §1, §2

… analog, Residue 8 = F = biological target: T62, … analog, Residue 8 = F
T62 peptide: DAEFRHDFGY
Protocol: as §1, §2

… analog, Residue 8 = V = biological target: T63, … analog, Residue 8 = V
T63 peptide: DAEFRHDVGY
Protocol: as §1, §2

… analog, Residue 3 = S = biological target: T64, … analog, Residue 3 = S
T64 peptide: DASFRHDSGY
Protocol: as §1, §2

… analog, Residue 3 = V = biological target: T65, … analog, Residue 3 = V
T65 peptide: DAVFRHDSGY
Protocol: as §1, §2

… analog, Residue 2 = C = biological target: T66, … analog, Residue 2 = C
T66 peptide: DCEFRHDSGY
Protocol: as §1, §2

… analog, Residue 3 = H = biological target: T67, … analog, Residue 3 = H
T67 peptide: DAHFRHDSGY
Protocol: as §1, §2

… analog, Residue 2 = D = biological target: T68, … analog, Residue 2 = D
T68 peptide: DDEFRHDSGY
Protocol: as §1, §2

… analog, Residue 2 = R = biological target: T69, … analog, Residue 2 = R
T69 peptide: DREFRHDSGY
Protocol: as §1, §2
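Also: antibody binding measured against single-substituted peptide analogs, each epitope position replaced by every one of 19 non-native amino acids, compared with binding to the native Aβ peptide.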

B1: murine monoclonal antibody 3D6 (antibody, mouse IgG2b, V domains shown)
VH: EVKLVESGGGLVKPGASLKLSCAASGFTFSNYGMSWVRQNSDKRLEWVASIRSGGGRTYYSDNVKGRFTISRENAKNTLYLQMSSLKSEDTALYYCVRYDHYSGSSDYWGQGTTVTVSS
VL: not shown
notes: also called mAb 3D6; m3D6
OD (… analog, Residue 3 = R): 0.015 OD | OD (… analog, Residue 2 = S): 0.587 OD | OD (… analog, Residue 8 = T): 0.586 OD | OD (… analog, Residue 3 = C): 0.222 OD | OD (… analog, Residue 8 = C): 0.583 OD | OD (… analog, Residue 5 = G): 0.485 OD | OD (… analog, Residue 3 = M): 0.019 OD | OD (… analog, Residue 2 = Y): 0.547 OD | OD (… analog, Residue 2 = P): 0.445 OD | OD (… analog, Residue 3 = L): 0.019 OD | OD (… analog, Residue 1 = T): 0.45 OD | OD (… analog, Residue 1 = N): 0.587 OD | OD (… analog, Residue 3 = Y): 0.016 OD | OD (… analog, Residue 3 = F): 0.034 OD | OD (… analog, Residue 3 = G): 0.016 OD | OD (… analog, Residue 2 = N): 0.525 OD | OD (… analog, Residue 1 = K): 0.033 OD | OD (… analog, Residue 1 = W): 0.031 OD | OD (… analog, Residue 2 = L): 0.482 OD | OD (… analog, Residue 3 = Q): 0.153 OD | OD (… analog, Residue 1 = E): 0.576 OD | OD (… analog, Residue 8 = G): 0.569 OD | OD (… analog, Residue 1 = P): 0.069 OD | OD (… analog, Residue 8 = D): 0.586 OD | OD (… analog, Residue 8 = P): 0.574 OD | OD (… analog, Residue 8 = W): 0.567 OD | OD (… analog, Residue 8 = E): 0.601 OD | OD (… analog, Residue 3 = D): 0.019 OD | OD (… analog, Residue 2 = T): 0.552 OD | OD (… analog, Residue 8 = I): 0.568 OD | OD (… analog, Residue 3 = A): 0.038 OD | OD (… analog, Residue 8 = Y): 0.574 OD | OD (… analog, Residue 1 = I): 0.048 OD | OD (… analog, Residue 2 = M): 0.535 OD | OD (… analog, Residue 2 = Q): 0.567 OD | OD (… analog, Residue 3 = I): 0.019 OD | OD (… analog, Residue 2 = G): 0.527 OD | OD (… analog, Residue 8 = Q): 0.59 OD | OD (… analog, Residue 3 = W): 0.149 OD | OD (… analog, Residue 1 = F): 0.034 OD | OD (… analog, Residue 8 = M): 0.571 OD | OD (… analog, Residue 1 = L): 0.073 OD | OD (… analog, Residue 1 = Y): 0.341 OD | OD (… analog, Residue 1 = M): 0.039 OD | OD (… analog, Residue 2 = I): 0.522 OD | OD (… analog, Residue 8 = H): 0.559 OD | OD (… analog, Residue 3 = N): 0.024 OD | OD (… analog, Residue 2 = W): 0.553 OD | OD (… analog, Residue 7 = E): 0.565 OD | OD (… analog, Residue 2 = E): 0.563 OD | OD (… analog, Residue 2 = H): 0.534 OD | OD (… analog, Residue 3 = T): 0.015 OD | OD (… analog, Residue 1 = S): 0.569 OD | OD (… analog, Residue 1 = Q): 0.441 OD | OD (… analog, Residue 8 = R): 0.589 OD | OD (… analog, Residue 3 = P): 0.017 OD | OD (… analog, Residue 1 = C): 0.45 OD | OD (… analog, Residue 1 = A): 0.464 OD | OD (… analog, Residue 1 = G): 0.569 OD | OD (… analog, Residue 2 = V): 0.55 OD | OD (… analog, Residue 8 = L): 0.57 OD | OD (… analog, Residue 8 = F): 0.586 OD | OD (… analog, Residue 8 = V): 0.578 OD | OD (… analog, Residue 3 = S): 0.016 OD | OD (… analog, Residue 3 = V): 0.016 OD | OD (… analog, Residue 2 = C): 0.553 OD | OD (… analog, Residue 3 = H): 0.016 OD | OD (… analog, Residue 2 = D): 0.119 OD | OD (… analog, Residue 2 = R): 0.562 OD
